Data reported in patent US10202469B2, “Sugar chain-attached linker, compound containing sugar chain-attached linker and physiologically active substance or salt thereof, and method for producing same” (Glytech, Inc., priority 2012, dated 2019).
Read-outs that look alike come from different tables or passages of the source.

How the values were obtained:
[1] = Solubility (μM)
Description: (§1) After the centrifugation, the absorbance of the supernatant portion at 280 nm was measured in the microtube. From the obtained value, the concentration was calculated to determine solubility.

[2] = Tracing of hydrolysis behavior in aqueous solution by HPLC (hydrolysis half-life)
Description: […] A given amount of each solution was injected to HPLC at appropriate time intervals to trace the hydrolysis reaction. The relative starting material concentration was determined from an HPLC peak area corresponding to the starting material. The relative concentration of the starting material was plotted against incubation time. […] Also, the terminal half-life t1/2 of the starting material was calculated according to the expression t1/2=ln(2)/k (wherein k represents the slope of the linear plot).

[3] = Solubility (μM); remark: listed apart in the source
Description: as §1

[4] = Solubility measurement in water (absorbance of supernatant at 280 nm); conditions: 25° C.
Description: as §1

[5] = Solubility measurement in 0.1% aqueous acetic acid (AcOH) solution; conditions: aqueous acetic acid solution (0.1% AcOH)
Description: as §1

[6] = test system: cytotoxic T lymphocyte (CTL); conditions: cited from earlier work
[7] = buffer, pH 4, Hydrolysis half-life, Acetate buffer solution (pH 4.0), 25° C.
[8] = buffer, pH 4, Hydrolysis half-life, Acetate buffer solution (pH 4.0), 37° C.
[9] = buffer, pH 7.4, Hydrolysis half-life, PBS (pH 7.4), 25° C.
[10] = buffer, pH 7.4, Hydrolysis half-life, PBS (pH 7.4), 37° C.

CC(=O)N[C@@H]1[C@@H](O)[C@H](O[C@@H]2O[C@H](CO)[C@@H](O[C@@H]3O[C@H](CO[C@H]4O[C@H](CO)[C@@H](O)[C@H](O)[C@@H]4O[C@@H]4O[C@H](CO)[C@@H](O[C@@H]5O[C@H](CO)[C@H](O)[C@H](O)[C@H]5O)[C@H](O)[C@H]4NC(C)=O)[C@@H](O)[C@H](O[C@H]4O[C@H](CO)[C@@H](O)[C@H](O)[C@@H]4O[C@@H]4O[C@H](CO)[C@@H](O[C@@H]5O[C@H](CO)[C@H](O)[C@H](O)[C@H]5O)[C@H](O)[C@H]4NC(C)=O)[C@@H]3O)[C@H](O)[C@H]2NC(C)=O)[C@@H](CO)O[C@H]1NC(=O)CSCC(NC(=O)c1ccc(COC(=O)[C@H](CC(C)C)NC(=O)[C@H](CC(C)C)NC(=O)[C@H](C)NC(=O)[C@H](CC(C)C)NC(=O)[C@H](CC(C)C)NC(=O)[C@H](CC(C)C)NC(=O)CNC(=O)[C@H](Cc2c[nH]c3ccccc23)NC(=O)[C@@H](N)CCCNC(=N)N)cc1)C(N)=O (stereo partly drawn) [compound 1]
solubility at 15 min [1]: > 41000 µM
Hydrolysis half-life ([2]; buffer, pH 4): >720 h
half-life ([2]; buffer, pH 4, Hydrolysis half-life): > 720 h
Hydrolysis half-life ([2]; buffer, pH 7.4): 146 h
half-life ([2]; buffer, pH 7.4, Hydrolysis half-life): 78 h
solubility at 15 min [3]: > 37000 µM

CC(=O)N[C@@H]1[C@@H](O)[C@H](O[C@@H]2O[C@H](CO)[C@@H](O[C@@H]3O[C@H](CO[C@H]4O[C@H](CO)[C@@H](O)[C@H](O)[C@@H]4O[C@@H]4O[C@H](CO)[C@@H](O[C@@H]5O[C@H](CO[C@]6(C(=O)O)C[C@H](O)[C@@H](NC(C)=O)[C@H]([C@H](O)[C@H](O)CO)O6)[C@H](O)[C@H](O)[C@H]5O)[C@H](O)[C@H]4NC(C)=O)[C@@H](O)[C@H](O[C@H]4O[C@H](CO)[C@@H](O)[C@H](O)[C@@H]4O[C@@H]4O[C@H](CO)[C@@H](O[C@@H]5O[C@H](CO[C@]6(C(=O)O)C[C@H](O)[C@@H](NC(C)=O)[C@H]([C@H](O)[C@H](O)CO)O6)[C@H](O)[C@H](O)[C@H]5O)[C@H](O)[C@H]4NC(C)=O)[C@@H]3O)[C@H](O)[C@H]2NC(C)=O)[C@@H](CO)O[C@H]1NC(=O)CSC[C@H](NC(=O)c1ccc(COC(=O)[C@H](CC(C)C)NC(=O)[C@H](CC(C)C)NC(=O)[C@H](C)NC(=O)[C@H](CC(C)C)NC(=O)[C@H](CC(C)C)NC(=O)[C@H](CC(C)C)NC(=O)CNC(=O)[C@H](Cc2c[nH]c3ccccc23)NC(=O)[C@@H](N)CCCNC(=N)N)cc1)C(N)=O [compound 8]
solubility at 15 min ([4]; Solubility (mg/mL)): ≥ 121 mg/mL
solubility at 15 min ([4]; Solubility (μM)): > 47000 µM
half-life [2, 7]: > 720 h
half-life [2, 8]: > 720 h
half-life [2, 9]: 121 h
half-life [2, 10]: 106 h
solubility at 15 min ([5]; Solubility (mg/mL)): ≥ 104 mg/mL
solubility at 15 min ([5]; Solubility (μM)): > 34000 µM

CC(C)C[C@H](NC(=O)[C@H](CC(C)C)NC(=O)[C@H](C)NC(=O)[C@H](CC(C)C)NC(=O)[C@H](CC(C)C)NC(=O)[C@H](CC(C)C)NC(=O)CNC(=O)[C@H](Cc1c[nH]c2ccccc12)NC(=O)[C@@H](N)CCCNC(=N)N)C(=O)O [compound 10]
Ability to induce cytotoxic T lymphocyte (CTL) [6]: exhibits the ability to induce cytotoxic T lymphocyte (CTL)

CC(=O)N[C@@H]1[C@@H](O)[C@H](O[C@@H]2O[C@H](CO)[C@@H](O[C@@H]3O[C@H](CO[C@H]4O[C@H](CO)[C@@H](O)[C@H](O)[C@@H]4O[C@@H]4O[C@H](CO)[C@@H](O[C@@H]5O[C@H](CO)[C@H](O)[C@H](O)[C@H]5O)[C@H](O)[C@H]4NC(C)=O)[C@@H](O)[C@H](O[C@H]4O[C@H](CO)[C@@H](O)[C@H](O)[C@@H]4O[C@@H]4O[C@H](CO)[C@@H](O[C@@H]5O[C@H](CO)[C@H](O)[C@H](O)[C@H]5O)[C@H](O)[C@H]4NC(C)=O)[C@@H]3O)[C@H](O)[C@H]2NC(C)=O)[C@@H](CO)O[C@H]1NC(=O)CSCCSC(=O)[C@H](CC(C)C)NC(=O)[C@H](CC(C)C)NC(=O)[C@H](C)NC(=O)[C@H](CC(C)C)NC(=O)[C@H](CC(C)C)NC(=O)[C@H](CC(C)C)NC(=O)CNC(=O)[C@H](Cc1c[nH]c2ccccc12)NC(=O)[C@@H](N)CCCNC(=N)N [compound 20]
solubility at 15 min ([4]; Solubility (mg/mL)): ≥ 77.4 mg/mL
solubility at 15 min ([4]; Solubility (μM)): > 28000 µM
half-life [2, 7]: > 720 h
half-life [2, 8]: 576 h
half-life ([2]; buffer, pH 7.4, Hydrolysis half-life, PBS (pH 7.4), 4° C.): 230 h
half-life [2, 9]: 120 h
half-life [2, 10]: 32 h

CC(=O)N[C@@H]1[C@@H](O)[C@H](O[C@@H]2O[C@H](CO)[C@@H](O[C@@H]3O[C@H](CO[C@H]4O[C@H](CO)[C@@H](O)[C@H](O)[C@@H]4O[C@@H]4O[C@H](CO)[C@@H](O[C@@H]5O[C@H](CO)[C@H](O)[C@H](O)[C@H]5O)[C@H](O)[C@H]4NC(C)=O)[C@@H](O)[C@H](O[C@H]4O[C@H](CO)[C@@H](O)[C@H](O)[C@@H]4O[C@@H]4O[C@H](CO)[C@@H](O[C@@H]5O[C@H](CO)[C@H](O)[C@H](O)[C@H]5O)[C@H](O)[C@H]4NC(C)=O)[C@@H]3O)[C@H](O)[C@H]2NC(C)=O)[C@@H](CO)O[C@H]1NC(=O)C[C@H](NC(=O)Cc1ccc(SC(=O)[C@H](CC(C)C)NC(=O)[C@H](CC(C)C)NC(=O)[C@H](C)NC(=O)[C@H](CC(C)C)NC(=O)[C@H](CC(C)C)NC(=O)[C@H](CC(C)C)NC(=O)CNC(=O)[C@H](Cc2c[nH]c3ccccc23)NC(=O)[C@@H](N)CCCNC(=N)N)cc1)C(=O)NCC(N)=O [compound 21]
solubility at 15 min ([4]; water, Solubility (mg/mL)): ≥ 76.7 mg/mL
solubility at 15 min ([4]; water, Solubility (μM)): > 26000 µM
half-life ([2]; PBS, pH 7.4, Hydrolysis half-life, PBS (pH 7.4), 4° C.): 66 h
half-life ([2]; PBS, pH 7.4, Hydrolysis half-life, PBS (pH 7.4), 25° C.): 25 h
half-life ([2]; PBS, pH 7.4, Hydrolysis half-life, PBS (pH 7.4), 37° C.): 4 h
half-life ([2]; acetate buffer solution, pH 4, Hydrolysis half-life, Acetate buffer solution (pH 4.0), 25° C.): 456 h
half-life ([2]; acetate buffer solution, pH 4, Hydrolysis half-life, Acetate buffer solution (pH 4.0), 37° C.): 240 h
Hydrolysis product found by HPLC analysis ([2]; after hydrolysis test in buffer solution): production of the unmodified HER2(8-16) peptide (compound 10) was confirmed
